Article doi:10.1101/373860 (bioRxiv, 2018)

Molecular target: the molecule itself
Test: cryo-EM structure

B1: Arabidopsis thaliana two-pore channel 1 with D240N, D454N, E528Q (AtTPC1DDE), deletion of residues 2-11 (natural protein, UniProt Q94KI8 1-733, looked up)
chain: MGGGGTDRVRRSEAITHGTPFQKAAALVDLAEDGIGLPVEILDQSSFGESARYYFIFTRLDLIWSLNYFALLFLNFFEQPLWCEKNPKPSCKDRDYYYLGELPYLTNAESIIYEVITLAILLVHTFFPISYEGSRIFWTSRLNLVKVACVVILFVDVLVDFLYLSPLAFDFLPFRIAPYVRVIIFILSIRELRDTLVLLSGMLGTYLNILALWMLFLLFASWIAFVMFENTQQGLTVFTSYGATLYQMFILFTTSNNPDVWIPAYKSSRWSSVFFVLYVLIGVYFVTNLILAVVYDSFKEQLAKQVSGMDQMKRRMLEKAFGLIDSDKNGEIDKNQCIKLFEQLTNYRTLPKISKEEFGLIFDELDDTRDFKINKDEFADLCQAIALRFQKEEVPSLFEHFPQIYHSALSQQLRAFVRSPNFGYAISFILIINFIAVVVETTLNIEESSAQKPWQVAEFVFGWIYVLEMALKIYTYGFENYWREGANRFDFLVTWVIVIGETATFITPDENTFFSNGQWIRYLLLARMLRLIRLLMNVQRYRAFIATFITLIPSLMPYLGTIFCVLCIYCSIGVQVFGGLVNAGNKKLFETELAEDDYLLFNFNDYPNGMVTLFNLLVMGNWQVWMESYKDLTGTWWSITYFVSFYVITILLLLNLVVAFVLEAFFTELDLEEEEKCQGQDSQEKRNRRRSAGSKSRSQRVDTLLHHMLGDELSKPECSTSDT
stoichiometry N: 2
